This note sets out measurements from article PMC4666138 (Molecular Biology of the Cell, 2015).

B2: FLAG-tagged UbxD8 (wild type) (natural protein)
chain: MAAPEERDLTQEQTEKLLQFQDLTGIESMDQCRHTLEQHNWNIEAAVQDRLNEQEGVPSVFNPPPSRPLQVNTADHRIYSYVVSRPQPRGLLGWGYYLIMLPFRFTYYTILDIFRFALRFIRPDPRSRVTDPVGDIVSFMHSFEEKYGRAHPVFYQGTYSQALNDAKRELRFLLVYLHGDDHQDSDEFCRNTLCAPEVISLINTRMLFWACSTNKPEGYRVSQALRENTYPFLAMIMLKDRRMTVVGRLEGLIQPDDLINQLTFIMDANQTYLVSERLEREERNQTQVLRQQQDEAYLASLRADQEKERKKREERERKRRKEEEVQQQKLAEERRRQNLQEEKERKLECLPPEPSPDDPESVKIIFKLPNDSRVERRFHFSQSLTVIHDFLFSLKESPEKFQIEANFPRRVLPCIPSEEWPNPPTLQEAGLSHTEVLFVQDLTDE

One test concerns the target FLAG-tagged gp78 (UniProt Q9UKV5 1-643). Put plainly: co-IP.
Test [1] has as its target B2. Put plainly: co-IP.

A word on the stoichiometry N: it is the number of molecules, sites or subunits per partner or assembly.

Chain of FLAG-tagged gp78 (Q9UKV5 whole entry): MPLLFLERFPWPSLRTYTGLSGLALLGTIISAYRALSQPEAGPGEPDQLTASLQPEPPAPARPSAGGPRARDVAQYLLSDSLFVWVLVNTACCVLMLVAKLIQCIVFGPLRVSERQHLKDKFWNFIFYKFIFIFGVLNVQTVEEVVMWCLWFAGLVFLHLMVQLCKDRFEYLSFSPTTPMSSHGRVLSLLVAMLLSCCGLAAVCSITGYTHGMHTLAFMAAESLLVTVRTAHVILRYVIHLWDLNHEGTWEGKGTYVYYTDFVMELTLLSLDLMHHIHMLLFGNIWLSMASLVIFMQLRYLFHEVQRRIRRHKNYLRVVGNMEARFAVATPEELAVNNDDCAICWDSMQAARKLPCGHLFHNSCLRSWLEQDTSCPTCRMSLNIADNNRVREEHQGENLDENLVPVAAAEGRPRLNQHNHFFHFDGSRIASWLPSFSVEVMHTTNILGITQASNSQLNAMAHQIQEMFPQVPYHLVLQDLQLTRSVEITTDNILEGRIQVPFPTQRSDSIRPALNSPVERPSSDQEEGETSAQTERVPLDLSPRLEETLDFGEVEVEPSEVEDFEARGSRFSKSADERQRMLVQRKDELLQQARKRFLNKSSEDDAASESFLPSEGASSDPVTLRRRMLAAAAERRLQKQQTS

B1: FLAG-tagged UBAC2 (recombinant, WT) (natural protein)
chain: HCQKLFVYDLHAVKNDFQIWRLICGRIICLDLKDTFCSSLLIYNFRIFERRYGSRKFASFLLGSWVLSALFDFLLIEAMQYFFGITAASNLPSGFLAPVFALFVPFYCSIPRVQVAQILGPLSITNKTLIYILGLQLFTSGSYIWIVAISGLMSGLCYDSKMFQVHQVLCIPSWMAKFFSWTLEPIFSSSEPTSEARIGMGATLDIQRQQRMELLDRQLMFSQFAQGRRQRQQQGGMINWNRLFPPLRQRQNVNYQGGRQSEPAAPPLEVSEEQVARLMEMGFSRGDALEALRASNNDLNVATNFLLQH
Take B1: the “stoichiometry N” value with FLAG-tagged gp78 is approximately 2 UBAC2 per gp78; in test [1] it was approximately 2 UBAC2 per UbxD8. For B2, in the test with FLAG-tagged gp78, the “stoichiometry N” value is approximately 1 UbxD8 per gp78.
